Source: doi:10.1101/2024.11.20.624382, “Reconstitution of SPO11-dependent double-strand break formation” (bioRxiv, 2024)

B1: mouse TOP6BL (Topoisomerase VIB-like) (natural protein, UniProt J3QMY9-1 1-579, looked up)
chain: MERTALAVCEILRYLIIHWKCEAGTAKGTLLDGQLVISIEALRSKHLPDSLHCIITIASTRSVYGGLNFKKFLQEIQPALPRLSAKLALASEEGGRSQDASGIAPCQVTFEVDENSQSLMTDCLVIKHFLRKIIIVHHKLKFSFSVAVNGTLSAETFGAENEPTLRLDNGVTLVVGFQRYVSKPKLNWSEAHCSRIHPVLGHPAPLFIPDAKADTGLLGELTLTPAAALCPSPKGFSSQLCRISSVSIFLYGPLGLPLLSSDQDQPSTAVFRDTSYFIDWKKYNLFMVPNLDLNLDTQSVLPDVNYKAESPEGNQSQNMNAQGPALLLFLFVDFQSDVPVQQAKIWGLHTLLTAHLSAILSESRSTVQQSIQSAVDQVWQLYHHDAKTQQRLQASLSVAVNSIMSVLTGSTRSSFRKTCLQALEAADTQEFGVKLHRIFYDITQHQFLKHCSCDTEQHLTPEKNISAQNTKDQHKNIAQEFPEESIGQAENKRPKRGSPNHGREESRVLGSARDRSPPKSATRDRELTEVSLTARGSQTQAAHGRAQAAEAASPAGGLEDLWLQEVSNLSEWLNPGHRS
notes: TOP6BL, mouse, untagged, full-length optimized coding DNA
B2: Flag-tagged mouse SPO11 (natural protein, UniProt Q9WTK8-1 1-396, looked up)
chain: MAFAPMGPEASFFDALDRHRASLLAMVKRGAGETPAGATRVASSSEVLTAIENIIQDIIKSLARNEVPAFTIDNRSSWENIMFDDSVGLRMIPQCTTRKIRSDSPKSVKKFALILKVLSMIYKLIQSDTYATKRDIYYTDSQLFGNQAAVDSAIDDISCMLKVPRRSLHVLSTSKGLIAGNLRYMEEDGTRVQCTCSATATAVPTNIQGMQHLITDAKFLLIVEKDATFQRLLDDNFCSRMSPCIMVTGKGVPDLNTRLLVKKLWDTFHIPVFTLVDADPYGIEIMCIYKYGSMSMSFEAHNLTIPTIRWLGLLPSDIQRLNIPKDSLIPLTKHDQMKLDSILKRPYITYQPLWKKELEMMADSKMKAEIQALTLLSSDYLSRVYLPNKLRFGGWI
notes: SPO11, mouse, b splicing isoform (includes exon 2), full-length optimized coding DNA; A TEV cleavage site stands between the Flag tag and SPO11; no cleavage is described; also called FlagSPO11; SPO11b; not shown: Flag, N-terminal, kept

How the values were obtained:
[1] = molecular target: B2; experiment: SEC; Superdex 200 Increase 10/300 GL after anti-Flag M2 affinity purification of the co-expressed proteins; lysis buffer 25 mM HEPES-NaOH pH 7.5, 500 mM NaCl; conditions: both partners purified
[2] = molecular target: B1; experiment: mass photometry; Refeyn OneMP; 28 nM protein; 25 mM HEPES-NaOH pH 7.5, 150 mM NaCl, 2 mM DTT; with 5 mM ATP; conditions: both partners purified
[3] = molecular target: T1, SPO11 (beta isoform), WT, in complex with TOP6BL;TOP6BL (Mus musculus;Mus musculus, UniProt Q9WTK8;J3QMY9 1-396;1-579, |); experiment: EMSA; apparent Kd (first monomer complex); 5 mM Mg2+, 4 C, 50 mM NaCl; doubly bound complexes form; EMSA: 25 mM Tris-HCl pH 7.5, 100 mM NaCl, 5 mM MgCl2, 2 mM DTT, 7.5% glycerol, 1 mg/ml BSA, 0.1 nM DNA, 30 C 30 min; cleavage substrate: 25 mM HEPES-NaOH pH 7.5, 50 mM NaCl, 5 mM MgCl2, 2 mM DTT, 7.5% glycerol, 1 mg/ml BSA, 4 C 30 min; conditions: protein: recombinant;recombinant; tags: N-terminal Flag-TEV;untagged; copies: 1;1; label: internal 32P (5'-labeled before ligation); closed dumbbell, 44 bp duplex, A4 loop at both ends
T1 sequence 1: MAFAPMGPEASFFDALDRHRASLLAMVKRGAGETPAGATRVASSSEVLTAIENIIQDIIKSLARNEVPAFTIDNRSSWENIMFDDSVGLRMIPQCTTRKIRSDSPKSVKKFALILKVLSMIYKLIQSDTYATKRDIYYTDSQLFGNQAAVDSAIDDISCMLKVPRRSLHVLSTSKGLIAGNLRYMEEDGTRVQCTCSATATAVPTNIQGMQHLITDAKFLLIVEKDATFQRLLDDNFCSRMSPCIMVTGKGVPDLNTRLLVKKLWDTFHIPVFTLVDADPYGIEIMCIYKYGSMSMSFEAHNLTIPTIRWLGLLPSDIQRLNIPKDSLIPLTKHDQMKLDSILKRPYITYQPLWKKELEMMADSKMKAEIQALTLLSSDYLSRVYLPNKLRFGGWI
T1 sequence 2: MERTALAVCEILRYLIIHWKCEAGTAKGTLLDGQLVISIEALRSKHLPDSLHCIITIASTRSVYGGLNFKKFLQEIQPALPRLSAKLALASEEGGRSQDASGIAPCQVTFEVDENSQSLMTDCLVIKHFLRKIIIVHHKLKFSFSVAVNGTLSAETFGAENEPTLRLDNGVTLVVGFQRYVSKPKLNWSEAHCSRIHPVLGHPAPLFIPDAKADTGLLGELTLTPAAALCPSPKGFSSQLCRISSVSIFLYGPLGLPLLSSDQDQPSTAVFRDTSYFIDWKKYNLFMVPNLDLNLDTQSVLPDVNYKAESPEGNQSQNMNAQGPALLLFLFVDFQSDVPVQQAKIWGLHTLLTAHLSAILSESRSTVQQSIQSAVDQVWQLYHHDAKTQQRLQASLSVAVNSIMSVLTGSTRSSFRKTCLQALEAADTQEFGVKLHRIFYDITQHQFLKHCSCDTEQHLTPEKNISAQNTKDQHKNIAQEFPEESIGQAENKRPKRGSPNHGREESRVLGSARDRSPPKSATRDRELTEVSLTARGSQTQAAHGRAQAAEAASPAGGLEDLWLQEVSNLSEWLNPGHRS

With B1 the “stoichiometry N” value [1] was 1.

B2: binds [2].

B3: oligonucleotide cleavage substrate, 44 bp duplex with A4 loops (structured_DNA)
DNA: CGGTTCAAAAGAACCGGAGCTGAATGAAGCCATACCAAACGACGAGCGTGACACAAAAGTGTCACGCTCGTCGTTTGGTATGGCTTCATTCAGCTC
modifications: circular, ligated by T4 DNA ligase
With B3 the Kd [3] was 1.8 nM.
